Experimental data taken from patent US7005283B2, “Cytochrome P450 oxygenases and their uses” (Washington State University Research Foundation, priority 1999, dated 2006).

B1: clone F9: Taxus cuspidata cytochrome P450 oxygenase, full-length clone, SEQ ID NO: 48 (nt) / 61 (aa) (protein, listed as Taxus cuspidata)
chain: MDSFNFLRGIGADFGGFIQFQSSPAVLSLSLITTILGVLLLWFFLHKNGSSVTLPPGNLGFPFIGETIPFLRALRSETPQTFFDERVKKFGVVFKTRIVGHPTVVLCGPEGNRFLLSNEDKLVQASLPNSSEKLIGKYSILSKRGEEHRILRAALARFLRPQALQGYVAKMSSEIQHHIKQKWKGNDEVKVLPLIRTLIFNIASSLFFGINDEHQQEQLHHLLEAIVLGSLSVPLDFPGTRFRKALDARSKLDEILSSLMESRRRDLRLGTASENQDLLSVLLTFKDERGNPLTDKEIFDNFSFMLHASYDTTVSPTGLMLKLLFSSPDCYEKLVQEQLGIVGNKKEGEEISWNDLKAMKYTCKVVQESMRMLPPVFGSYRKAXTYIHYDGYTIPKGWNIFWSPYTTHGKEEYFNEADKFMPSRFEEGKYVAPYTFLPFGAGLRVCPGWEFAKTEILLFVHHFITTFSSYIPIDPKDKISGDPFPPLPTNGFSMKLFTRS
modifications: not fully specified; (1)..(500) “Xaa” equals any peptide
B2: clone F7: Taxus cuspidata cytochrome P450 oxygenase, full-length clone, SEQ ID NO: 83 (nt) / 89 (aa) (protein, listed as Taxus cuspidata)
chain: MDSFTFVTIKMGKIWQVIQVEYILSLTLTAILLFFFRYRNKSSHKLPPGNLGFPFIGETIQFLRSLRSQTPEFFFDERVKKFGPVFKTSLIGAPTVIFCGAAGSRLVLSNEDKLVQMESPSSLKKLMGENSILYKREEEHRILRSALSRFLGPQALQTYIAKMSTEIERHINEKWKGKEEVKTLPLIRGLVFSIASSLFFDINDEPQQERLHHHLESLVAGSMAVRLDFPGTRFRKAVEARSKLDEALHSLIKSRRSDLLSGKASSNQDLLSVLLSFKDERGNPLRDEEILDNFSLILHASYDTTISPMVLTLKLLSSNPECYDKVVQEQFGILANKKEGEEISWKDLKAMKYTWQVVQETLRMFPPLFGSFRKAMVDINYDGYTIPKGWIVLWTTYSTHVKEEYFNEPGKFRPSRFEHDGRHVAPYTFLPFGGGLRTCPGWEFSKTEILLFIHHFVKTFGSYLPVDPNEKISADPFPPLPANGFSIKLFPRS
B3: clone F12: Taxus cuspidata cytochrome P450 oxygenase, full-length clone, SEQ ID NO: 43 (nt) / 56 (aa) (protein, listed as Taxus cuspidata)
chain: MDTFIQHESSPLLLSLTLAVILGTILLLILSGKQYRSSRKLPPGNMGFPLIGETIALISDTPRKFIDDRVKKFGLVFKTSLIGHPAVVICGSSANRFLLSNEEKLVRMSLPNAVLKLLGQDCVMGKTGVEHGIVRTALARALGPQALQNYVAKMSSEIEHHINQKWKGKDEVKVLPLIRSLVFSISTSLFFGINDEHQQKRLHHLLETVAMGLVSIPLDFPGTRFRKALYARSKLDEIMSSVIERRRSDLRSGAASSDQDLLSVLVTFKDERGNSFADKEILDNFSFLLHALYDTTISPLTLIFKLLSSSPECYENIAQEQLEILGNKKDREEISWKDLKDMKYTWQAVQETLRMFPPVYGYIREALTDIDYDGYTIPKGWRILCSPHTTHSKEEYFDEPEEFRPSRFEDQGRHVAPYTFIPFGGGLRICAGWEFAKMEILLFMHHFVKTFSHFIPVDPNEKISRDPLPPIPVKGFSIKPFPRS
B4: clone F82: Taxus cuspidata cytochrome P450 oxygenase, full-length clone, SEQ ID NO: 81 (nt) / 87 (aa) (protein, listed as Taxus cuspidata)
chain: MDAFNVLMGPLAKFDNFMQLGSYSENLSVTITVTAIAVITLLLVLIRSKPQSCVNLPPGKLGYPFIGETLQLLQAFRSNRPQQFFDERQKKFGSVFKTSLIGDRTVVLCGPSGNRLLLSNENKLVEASWPSSSIKLIGEDSIAGKNGEKHRILRAAVNRYLGPGALQNYMAKMRSEIEHHMNEKWKGKEQVKVLPLVKENVFSIATSLFFGVNDDGERERLHDLLETALAGVFSIPLDFPGTNYRKALEARLKLDKVLSSLIERRRSDLRSGVASGNEDLLSVWLTFKDEEGNPLTDKEILDNFSTLLHASYDTTTSALTLTLKLMSSSTECYHKVVQEQLRIVSNKKEGEEISLKDLKDMKYTWQVVQETLRMFPPLFGSFRKAITDIHYDGYTIPKGWKVLWTTYSTHGREEYFNEPEKFMPSRFEEEGRHVAPYTFLPFGAGVRTCPGWEFSKTQILLFLHYFVKTFSGYIPLDPDEKVLGNPVPPLPANGFAIKLFPRPSFDQGSPME
B5: clone F51: Taxus cuspidata cytochrome P450 oxygenase, full-length clone, SEQ ID NO: 47 (nt) / 60 (aa) (protein, listed as Taxus cuspidata)
chain: MDTIRASFGEVIQPEYSPLIISXALAAFLGIVIFSIFSSTRRSYVNLPPGNLGLPFIGETIQFLGALQSEKPHTFFDERVKKFGKVFKTSLIGDPTVVLCGPAGNRLVLSNEDKLVQSAGPKSFLKLFGEDSVAAKREESHRILRSALGRFLGPHALQNYIGKMNSEMQRHFDDKWKGKDEVKVLPLVRGLIFSIATSLFFNINDDRQREQLHGLLDTILVGSMTIPLNIPGTLFRKAVKARAKLDEILFALIENRRRELRSGLNSGNQDLLSSLLTFKDEKGNPLTDKEILDNFSVMLHASYDTTVSPTVLILKLLASNPECYEKVVQEQLGILASKKEGEEVNWKDLKAMPYTWQAIQEPLXMPXQLLECFEELSLIFSWKAIQFQKDGQLCGXLIVNGREEFFNEPDKFKPSRFEEGKPLDPYTFIPFGAGVRICAGWEFAKAELLLFVHPFVKNFSGCIIIDPNEKISGDPFPPLPTSGQLMKLIPRS
modifications: not fully specified; (1)..(492) “Xaa” equals any peptide
B6: clone F72: Taxus cuspidata cytochrome P450 oxygenase, full-length clone, SEQ ID NO: 54 (nt) / 67 (aa) (protein, listed as Taxus cuspidata)
chain: MDVFYPLKSTVAKFNECFPAILFIVLSAVAGIVLPLLLFLRSKRRSSVGLPPGKLGYPFIGESLLFLKALRSNTVEQFLDERVKNFGNVFKTSLIGHPTVVLCGPAGNRLILANEEKLVQMSWPKSSMKLMGEKSITAKRGEGHMIIRSALQGFFSPGALQKYIGQMSKTIENHINEKWKGNDQVSVVALVGDLVFDISACLFFNINEKHERERLFELLEIIAVGVLAVPVDLPGFAYHRALQARSKLNAILSGLIEKRKMDLSSGLATSNQDLLSVFLTFKDDRGNPCSDEEILDNFSGLLHGSYDTTVSAMACVFKLLSSNPECYEKVVQEQLGILSNKLEGDEITWKDVKSMKYTWQVVQETLRLYPSIFGSFRQAITDIHYNGYIIPKGWKLLWTPYTTHPKEMYFSEPEKFLPSRFDQEGKLVAPYTFLPFGGGQRSCPGWEFSKMEILLSVHHFVKTFSTFTPVDPAEIIARDSLCPLPSNGFSVKLFPRSYSLHTGNQVKKI

Tests used:
[1] = In vivo assay of yeast cells expressing recombinant oxygenases, radio-HPLC, substrate taxadien-5α-ol; assay type: cell-based, Saccharomyces cerevisiae; conditions: yeast transformants, radio-HPLC and GC-MS
From the text: (§1) Transformed yeast cells that fimctionally express a recombinant cytochrome P450 gene from Taxus (by CO-difference spectrum) can be tested in vivo for their ability to oxygenate (hydroxylate or epoxidize) taxoid substrates fed exogenously to the cells, thereby eliminating the need for microsome isolation for preliminary in vitro assays.
(§2) Accordingly, several clones of the available full-length clones were expressed in induced yeast host cells.
(§3) Isolated transformants for each full-length cytochrome P450 clone shown to express a functional enzyme by CO-difference spectrum (ten clones) were grown to stationary phase in 2 mL SGI medium at 30° C. and used to inoculate a 10-mL expression culture (in YPL medium). Approximately 8 hours after induction, cells were harvested by centrifugation (10 minutes at 1500 rpm), and the pellet was resuspended in 2 mL of fresh YPL medium.
(§4) To eliminate additional complication and uncertainty associated with microsome isolations for in vitro assays, 10^6 dpm of [20-^3H3]taxa-4(5),11(12)-diene (16 Ci/mol) or [20-^3H2]taxa-4(20),11(12)-diene-5-α-ol (4.0 Ci/mol), or other taxoid substrate were added directly to the cell suspension to assay conversion in vivo. After 12 hours of incubation at 30° C. with agitation (250 rpm), the mixture was treated for 15 minutes in a sonication bath and extracted 3 times with 2 mL diethyl ether to insure isolation of the biosynthetic products. These ether extracts, containing residual substrate and derived product(s), were concentrated to dryness, resuspended in 200 μL of CH3CN, and filtered. These samples were analyzed by radio-HPLC (Hefner et al., Chemistry and Biology 3:479–489, 1996) using a 4.6 mm i.d.×250 mm column of Econosil C18, 5 μ (Alltech, Deerfield, Ill.) with a gradient of CH3CN in H2O from 0% to 85% (10 minutes at 1 mL/minute), then to 100% CH3CN over 40 minutes.

[2] = assay type: binding, Saccharomyces cerevisiae
From the text: CO-sensor of the 19 full-length cytochrome P450 clones from Taxus, thus far obtained, ten have yielded detectable CO-difference spectra (Table 2). […] These alternative expression systems for cytochrome P450 genes include the yeast Pichia pastoris, for which expression vectors and hosts are commercially available (Invitrogen, Carlsbad, Calif.), as well as established E. coli and baculovirus-insect cell systems for which general expression procedures have been described (Barnes, Methods Enzymol. 272:1–14, 1996;Gonzalez et al., Methods Enzymol. 206:93–99, 1991;Lee et al., Methods Enzymol. 272:86–98, 1996;and Lupien et al., Arch. Biochem. Biophys. 368:181–192, 1999).
Appropriate restriction sites were introduced by standard PCR methods (Innis et al., PCR Protocols: A Guide to Methods and Applications, Academic Press, San Diego, Calif., 1990) immediately upstream of the ATG start codon and downstream of the stop codon of all full-length cytochrome P450 clones. These modified amplicons were gel-purified, digested with the corresponding restriction enzymes, and then ligated into the expression vector pYeDP60. The vector/insert junctions were sequenced to ensure that no errors had been introduced by the PCR construction. Verified clones were transformed into yeast using the lithium acetate method (Ito et al., J. Bacteriol. 153:163–168, 1983). Isolated transformants were grown to stationary phase in SGI medium (Pompon et al., Methods Enzymol. 272:51–64, 1996), and used as inocula for a large-scale expression culture grown in YPL medium (Pompon et al., Methods Enzymol. 272:51–64, 1996). Approximately 24 hours after induction of cytochrome P450 expression with galactose (to 10% final concentration), a portion of the yeast cell culture was harvested by centrifugation. One-half of the culture was treated with carbon monoxide, and the cytochrome P450 CO-difference spectrum was recorded directly (using untreated cells as a control) by spectrophotometry (Omura and Sato, J. Biol. Chem. 239:2370–2378, 1964).

[3] = In vivo assay of yeast cells expressing recombinant oxygenases, radio-HPLC, substrate taxadiene; assay type: cell-based, Saccharomyces cerevisiae; conditions: assayed with Taxadiene; graded symbols, key not given
From the text: as §1, §2, §3, §4

| Molecule | product formed from taxadien-5α-ol [1] | CO diff. spec. [2] | product identified HPLC peak [3] |
| --- | --- | --- | --- |
| B1 | more polar products | + | No |
| B2 |  | − | No |
| B3 | more polar products | + | No |
| B4 |  | − | No |
| B5 | diol products | + | No |
| B6 |  | + | No |
